From the Human Domainome abundance scans (Beltran et al. 2025)
± gives the uncertainty stated by the source.

B1: RNA-binding E3 ubiquitin-protein ligase MEX3C, residues 325 to 391; numbered along this chain, Q5U5Q3 (parent)
chain: GQTTVQVRVPYRVVGLVVGPKGATIKRIQQQTHTYIVTPSRDKEPVFEVTGMPENVDRAREEIEMHI

Variants of: B1
Assay: abundance fitness (aPCA) (normalised: wild type 0, dead -1); higher = more abundant; growth selection in yeast, the domain comes from the species named
Conditions: Homo sapiens

Variant	abundance fitness
GQTTVQVRVPYRVVGLVVGPKGATIKRIQQQTHCYIVTPSRDKEPVFEVTGMPENVDRAREEIEMHI [T34C]	-0.423 ± 0.14
GQTTVQVRVPYRVVGLVVGPKGATIKRIQQQTHDYIVTPSRDKEPVFEVTGMPENVDRAREEIEMHI [T34D]	-0.503 ± 0.15
GQTTVQVRVPYRVVGLVVGPKGATIKRIQQQTHFYIVTPSRDKEPVFEVTGMPENVDRAREEIEMHI [T34F]	-0.969 ± 0.36
GQTTVQVRVPYRVVGLVVGPKGATIKRIQQQTHGYIVTPSRDKEPVFEVTGMPENVDRAREEIEMHI [T34G]	-0.828 ± 0.1
GQTTVQVRVPYRVVGLVVGPKGATIKRIQQQTHIYIVTPSRDKEPVFEVTGMPENVDRAREEIEMHI [T34I]	-0.866 ± 0.25
GQTTVQVRVPYRVVGLVVGPKGATIKRIQQQTHKYIVTPSRDKEPVFEVTGMPENVDRAREEIEMHI [T34K]	-0.34 ± 0.12
GQTTVQVRVPYRVVGLVVGPKGATIKRIQQQTHLYIVTPSRDKEPVFEVTGMPENVDRAREEIEMHI [T34L]	-0.689 ± 0.096
GQTTVQVRVPYRVVGLVVGPKGATIKRIQQQTHMYIVTPSRDKEPVFEVTGMPENVDRAREEIEMHI [T34M]	-0.788 ± 0.14
GQTTVQVRVPYRVVGLVVGPKGATIKRIQQQTHNYIVTPSRDKEPVFEVTGMPENVDRAREEIEMHI [T34N]	-0.791 ± 0.22
GQTTVQVRVPYRVVGLVVGPKGATIKRIQQQTHPYIVTPSRDKEPVFEVTGMPENVDRAREEIEMHI [T34P]	-0.867 ± 0.25
GQTTVQVRVPYRVVGLVVGPKGATIKRIQQQTHQYIVTPSRDKEPVFEVTGMPENVDRAREEIEMHI [T34Q]	-1.01 ± 0.41
GQTTVQVRVPYRVVGLVVGPKGATIKRIQQQTHRYIVTPSRDKEPVFEVTGMPENVDRAREEIEMHI [T34R]	-0.641 ± 0.068
GQTTVQVRVPYRVVGLVVGPKGATIKRIQQQTHSYIVTPSRDKEPVFEVTGMPENVDRAREEIEMHI [T34S]	-0.802 ± 0.13
GQTTVQVRVPYRVVGLVVGPKGATIKRIQQQTHWYIVTPSRDKEPVFEVTGMPENVDRAREEIEMHI [T34W]	-0.947 ± 0.2
GQTTVQVRVPYRVVGLVVGPKGATIKRIQQQTHYYIVTPSRDKEPVFEVTGMPENVDRAREEIEMHI [T34Y]	-1.07 ± 0.33
GQTTVQVRVPYRVVGLVVGPKGATIKRIQQQTHTAIVTPSRDKEPVFEVTGMPENVDRAREEIEMHI [Y35A]	-0.044 ± 0.064
GQTTVQVRVPYRVVGLVVGPKGATIKRIQQQTHTCIVTPSRDKEPVFEVTGMPENVDRAREEIEMHI [Y35C]	-0.132 ± 0.098
GQTTVQVRVPYRVVGLVVGPKGATIKRIQQQTHTDIVTPSRDKEPVFEVTGMPENVDRAREEIEMHI [Y35D]	-0.283 ± 0.41
GQTTVQVRVPYRVVGLVVGPKGATIKRIQQQTHTEIVTPSRDKEPVFEVTGMPENVDRAREEIEMHI [Y35E]	-0.041 ± 0.069
GQTTVQVRVPYRVVGLVVGPKGATIKRIQQQTHTFIVTPSRDKEPVFEVTGMPENVDRAREEIEMHI [Y35F]	-0.02 ± 0.14

Variant	abundance fitness
GQTTVQVRVPYRVVGLVVGPKGATIKRIQQQTHTGIVTPSRDKEPVFEVTGMPENVDRAREEIEMHI [Y35G]	-0.511 ± 0.069
GQTTVQVRVPYRVVGLVVGPKGATIKRIQQQTHTHIVTPSRDKEPVFEVTGMPENVDRAREEIEMHI [Y35H]	0.164 ± 0.084
GQTTVQVRVPYRVVGLVVGPKGATIKRIQQQTHTIIVTPSRDKEPVFEVTGMPENVDRAREEIEMHI [Y35I]	-0.069 ± 0.1
GQTTVQVRVPYRVVGLVVGPKGATIKRIQQQTHTKIVTPSRDKEPVFEVTGMPENVDRAREEIEMHI [Y35K]	0.284 ± 0.092
GQTTVQVRVPYRVVGLVVGPKGATIKRIQQQTHTLIVTPSRDKEPVFEVTGMPENVDRAREEIEMHI [Y35L]	-0.046 ± 0.056
GQTTVQVRVPYRVVGLVVGPKGATIKRIQQQTHTMIVTPSRDKEPVFEVTGMPENVDRAREEIEMHI [Y35M]	-0.044 ± 0.1
GQTTVQVRVPYRVVGLVVGPKGATIKRIQQQTHTNIVTPSRDKEPVFEVTGMPENVDRAREEIEMHI [Y35N]	0.1 ± 0.074
GQTTVQVRVPYRVVGLVVGPKGATIKRIQQQTHTPIVTPSRDKEPVFEVTGMPENVDRAREEIEMHI [Y35P]	-0.773 ± 0.17
GQTTVQVRVPYRVVGLVVGPKGATIKRIQQQTHTQIVTPSRDKEPVFEVTGMPENVDRAREEIEMHI [Y35Q]	0.206 ± 0.077
GQTTVQVRVPYRVVGLVVGPKGATIKRIQQQTHTRIVTPSRDKEPVFEVTGMPENVDRAREEIEMHI [Y35R]	0.2 ± 0.039
GQTTVQVRVPYRVVGLVVGPKGATIKRIQQQTHTSIVTPSRDKEPVFEVTGMPENVDRAREEIEMHI [Y35S]	0.15 ± 0.061
GQTTVQVRVPYRVVGLVVGPKGATIKRIQQQTHTTIVTPSRDKEPVFEVTGMPENVDRAREEIEMHI [Y35T]	0.307 ± 0.068
GQTTVQVRVPYRVVGLVVGPKGATIKRIQQQTHTVIVTPSRDKEPVFEVTGMPENVDRAREEIEMHI [Y35V]	0.129 ± 0.06
GQTTVQVRVPYRVVGLVVGPKGATIKRIQQQTHTWIVTPSRDKEPVFEVTGMPENVDRAREEIEMHI [Y35W]	-0.135 ± 0.067
GQTTVQVRVPYRVVGLVVGPKGATIKRIQQQTHTYAVTPSRDKEPVFEVTGMPENVDRAREEIEMHI [I36A]	-0.555 ± 0.1
GQTTVQVRVPYRVVGLVVGPKGATIKRIQQQTHTYEVTPSRDKEPVFEVTGMPENVDRAREEIEMHI [I36E]	-1.04 ± 0.22
GQTTVQVRVPYRVVGLVVGPKGATIKRIQQQTHTYFVTPSRDKEPVFEVTGMPENVDRAREEIEMHI [I36F]	-0.941 ± 0.31
GQTTVQVRVPYRVVGLVVGPKGATIKRIQQQTHTYGVTPSRDKEPVFEVTGMPENVDRAREEIEMHI [I36G]	-0.586 ± 0.064
GQTTVQVRVPYRVVGLVVGPKGATIKRIQQQTHTYKVTPSRDKEPVFEVTGMPENVDRAREEIEMHI [I36K]	-0.729 ± 0.3
GQTTVQVRVPYRVVGLVVGPKGATIKRIQQQTHTYMVTPSRDKEPVFEVTGMPENVDRAREEIEMHI [I36M]	-0.885 ± 0.24
